Source: US20140087995A1 (published 2014)
Numbered stars: 1 amine (or outer) side, 2 acyl side, 3 side chain; on linkers, the order of the positions; unused ones are H or OH. Bridge positions count the residues as written; N and C are the ends. Side chains are listed from the residue outwards. Ends that are not written are not given here. * marks the point of attachment. C20 diacid = O=C(O)CCCCCCCCCCCCCCCCCCC(=O)*; γGlu = O=C(O)[C@H](CCC(=O)[*:2])N[*:1]; AEEA = NCCOCCOCC(=O)O

T1: human calcitonin receptor (human, UniProt P30988 25-474)
T1 construct: whole, on cells; Assay used cell membranes of the transfected BHK cells; also called hCTR; hCT
T1 sequence (looked up): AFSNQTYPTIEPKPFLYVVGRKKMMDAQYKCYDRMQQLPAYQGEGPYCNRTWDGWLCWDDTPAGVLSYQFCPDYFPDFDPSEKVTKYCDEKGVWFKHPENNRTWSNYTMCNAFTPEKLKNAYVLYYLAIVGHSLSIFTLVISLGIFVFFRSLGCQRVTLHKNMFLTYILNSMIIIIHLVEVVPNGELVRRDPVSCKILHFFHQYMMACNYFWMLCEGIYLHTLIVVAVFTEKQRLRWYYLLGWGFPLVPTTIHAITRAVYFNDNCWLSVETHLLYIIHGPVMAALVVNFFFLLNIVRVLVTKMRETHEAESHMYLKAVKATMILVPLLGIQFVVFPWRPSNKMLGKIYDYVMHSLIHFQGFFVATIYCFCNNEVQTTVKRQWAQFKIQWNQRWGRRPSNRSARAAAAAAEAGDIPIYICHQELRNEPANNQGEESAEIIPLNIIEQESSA

B1: N^ε1-[2-[2-[2-[[(4S)-4-carboxy-4-(19-carboxynonadecanoylamino)butanoyl]amino]ethoxy]ethoxy]acetyl]-[Arg17,Pro21,Pro27,Glu35]-h-amylin (peptide)
peptide: K([AEEA-γGlu-C20 diacid])CNTATCATQRLANFLRHSSPNFGAIPSSTNVGSETY-NH2
modifications: disulfide 2-7; N-terminus assumed
SMILES: CC[C@H](C)[C@H](NC(=O)[C@H](C)NC(=O)CNC(=O)[C@H](Cc1ccccc1)NC(=O)[C@H](CC(N)=O)NC(=O)[C@@H]1CCCN1C(=O)[C@H](CO)NC(=O)[C@H](CO)NC(=O)[C@H](Cc1c[nH]cn1)NC(=O)[C@H](CCCNC(=N)N)NC(=O)[C@H](CC(C)C)NC(=O)[C@H](Cc1ccccc1)NC(=O)[C@H](CC(N)=O)NC(=O)[C@H](C)NC(=O)[C@H](CC(C)C)NC(=O)[C@H](CCCNC(=N)N)NC(=O)[C@H](CCC(N)=O)NC(=O)[C@@H](NC(=O)[C@H](C)NC(=O)[C@@H]1CSSC[C@H](NC(=O)[C@@H](N)CCCCNC(=O)COCCOCCNC(=O)CC[C@H](NC(=O)CCCCCCCCCCCCCCCCCCC(=O)O)C(=O)O)C(=O)N[C@@H](CC(N)=O)C(=O)N[C@@H]([C@@H](C)O)C(=O)N[C@@H](C)C(=O)N[C@@H]([C@@H](C)O)C(=O)N1)[C@@H](C)O)C(=O)N1CCC[C@H]1C(=O)N[C@@H](CO)C(=O)N[C@@H](CO)C(=O)N[C@H](C(=O)N[C@@H](CC(N)=O)C(=O)N[C@H](C(=O)NCC(=O)N[C@@H](CO)C(=O)N[C@@H](CCC(=O)O)C(=O)N[C@H](C(=O)N[C@@H](Cc1ccc(O)cc1)C(N)=O)[C@@H](C)O)C(C)C)[C@@H](C)O
notes: Synthetic analogue; also called compound 26
B2: N^ε1-[2-[2-[2-[[(4S)-4-carboxy-4-(19-carboxynonadecanoylamino)butanoyl]amino]ethoxy]ethoxy]acetyl]-[Arg17,Pro21,Pro27,Pro31]-h-amylin (peptide)
peptide: K([AEEA-γGlu-C20 diacid])CNTATCATQRLANFLRHSSPNFGAIPSSTPVGSNTY-NH2
modifications: disulfide 2-7; N-terminus assumed
SMILES: CC[C@H](C)[C@H](NC(=O)[C@H](C)NC(=O)CNC(=O)[C@H](Cc1ccccc1)NC(=O)[C@H](CC(N)=O)NC(=O)[C@@H]1CCCN1C(=O)[C@H](CO)NC(=O)[C@H](CO)NC(=O)[C@H](Cc1c[nH]cn1)NC(=O)[C@H](CCCNC(=N)N)NC(=O)[C@H](CC(C)C)NC(=O)[C@H](Cc1ccccc1)NC(=O)[C@H](CC(N)=O)NC(=O)[C@H](C)NC(=O)[C@H](CC(C)C)NC(=O)[C@H](CCCNC(=N)N)NC(=O)[C@H](CCC(N)=O)NC(=O)[C@@H](NC(=O)[C@H](C)NC(=O)[C@@H]1CSSC[C@H](NC(=O)[C@@H](N)CCCCNC(=O)COCCOCCNC(=O)CC[C@H](NC(=O)CCCCCCCCCCCCCCCCCCC(=O)O)C(=O)O)C(=O)N[C@@H](CC(N)=O)C(=O)N[C@@H]([C@@H](C)O)C(=O)N[C@@H](C)C(=O)N[C@@H]([C@@H](C)O)C(=O)N1)[C@@H](C)O)C(=O)N1CCC[C@H]1C(=O)N[C@@H](CO)C(=O)N[C@@H](CO)C(=O)N[C@H](C(=O)N1CCC[C@H]1C(=O)N[C@H](C(=O)NCC(=O)N[C@@H](CO)C(=O)N[C@@H](CC(N)=O)C(=O)N[C@H](C(=O)N[C@@H](Cc1ccc(O)cc1)C(N)=O)[C@@H](C)O)C(C)C)[C@@H](C)O
notes: Synthetic analogue; also called compound 49
B3: N^ε1-[(4S)-4-carboxy-4-(19-carboxynonadecanoylamino)butanoyl]-[Arg17,Pro21,Pro27,Glu35]-h-amylin (peptide)
peptide: K([γGlu-C20 diacid])CNTATCATQRLANFLRHSSPNFGAIPSSTNVGSETY-NH2
modifications: disulfide 2-7; N-terminus assumed
SMILES: CC[C@H](C)[C@H](NC(=O)[C@H](C)NC(=O)CNC(=O)[C@H](Cc1ccccc1)NC(=O)[C@H](CC(N)=O)NC(=O)[C@@H]1CCCN1C(=O)[C@H](CO)NC(=O)[C@H](CO)NC(=O)[C@H](Cc1c[nH]cn1)NC(=O)[C@H](CCCNC(=N)N)NC(=O)[C@H](CC(C)C)NC(=O)[C@H](Cc1ccccc1)NC(=O)[C@H](CC(N)=O)NC(=O)[C@H](C)NC(=O)[C@H](CC(C)C)NC(=O)[C@H](CCCNC(=N)N)NC(=O)[C@H](CCC(N)=O)NC(=O)[C@@H](NC(=O)[C@H](C)NC(=O)[C@@H]1CSSC[C@H](NC(=O)[C@@H](N)CCCCNC(=O)CC[C@H](NC(=O)CCCCCCCCCCCCCCCCCCC(=O)O)C(=O)O)C(=O)N[C@@H](CC(N)=O)C(=O)N[C@@H]([C@@H](C)O)C(=O)N[C@@H](C)C(=O)N[C@@H]([C@@H](C)O)C(=O)N1)[C@@H](C)O)C(=O)N1CCC[C@H]1C(=O)N[C@@H](CO)C(=O)N[C@@H](CO)C(=O)N[C@H](C(=O)N[C@@H](CC(N)=O)C(=O)N[C@H](C(=O)NCC(=O)N[C@@H](CO)C(=O)N[C@@H](CCC(=O)O)C(=O)N[C@H](C(=O)N[C@@H](Cc1ccc(O)cc1)C(N)=O)[C@@H](C)O)C(C)C)[C@@H](C)O
notes: Synthetic analogue; also called compound 27
B4: N^ε1-[(4S)-4-carboxy-4-(19-carboxynonadecanoylamino)butanoyl]-[Arg17,Pro21,Pro27,Lys35]-h-amylin (peptide)
peptide: K([γGlu-C20 diacid])CNTATCATQRLANFLRHSSPNFGAIPSSTNVGSKTY-NH2
modifications: disulfide 2-7; N-terminus assumed
SMILES: CC[C@H](C)[C@H](NC(=O)[C@H](C)NC(=O)CNC(=O)[C@H](Cc1ccccc1)NC(=O)[C@H](CC(N)=O)NC(=O)[C@@H]1CCCN1C(=O)[C@H](CO)NC(=O)[C@H](CO)NC(=O)[C@H](Cc1c[nH]cn1)NC(=O)[C@H](CCCNC(=N)N)NC(=O)[C@H](CC(C)C)NC(=O)[C@H](Cc1ccccc1)NC(=O)[C@H](CC(N)=O)NC(=O)[C@H](C)NC(=O)[C@H](CC(C)C)NC(=O)[C@H](CCCNC(=N)N)NC(=O)[C@H](CCC(N)=O)NC(=O)[C@@H](NC(=O)[C@H](C)NC(=O)[C@@H]1CSSC[C@H](NC(=O)[C@@H](N)CCCCNC(=O)CC[C@H](NC(=O)CCCCCCCCCCCCCCCCCCC(=O)O)C(=O)O)C(=O)N[C@@H](CC(N)=O)C(=O)N[C@@H]([C@@H](C)O)C(=O)N[C@@H](C)C(=O)N[C@@H]([C@@H](C)O)C(=O)N1)[C@@H](C)O)C(=O)N1CCC[C@H]1C(=O)N[C@@H](CO)C(=O)N[C@@H](CO)C(=O)N[C@H](C(=O)N[C@@H](CC(N)=O)C(=O)N[C@H](C(=O)NCC(=O)N[C@@H](CO)C(=O)N[C@@H](CCCCN)C(=O)N[C@H](C(=O)N[C@@H](Cc1ccc(O)cc1)C(N)=O)[C@@H](C)O)C(C)C)[C@@H](C)O
notes: Synthetic analogue; also called compound 35
B5: N^ε1-[(4S)-4-carboxy-4-[[(4S)-4-carboxy-4-(19-carboxynonadecanoylamino)butanoyl]amino]butanoyl]-[Asp14,Arg17,Pro21,Pro26,Asp35]-h-amylin (peptide)
peptide: K([γGlu-γGlu-C20 diacid])CNTATCATQRLADFLRHSSPNFGAPLSSTNVGSDTY-NH2
modifications: disulfide 2-7; N-terminus assumed
SMILES: CC(C)C[C@H](NC(=O)[C@H](CCCNC(=N)N)NC(=O)[C@H](CCC(N)=O)NC(=O)[C@@H](NC(=O)[C@H](C)NC(=O)[C@@H]1CSSC[C@H](NC(=O)[C@@H](N)CCCCNC(=O)CC[C@H](NC(=O)CC[C@H](NC(=O)CCCCCCCCCCCCCCCCCCC(=O)O)C(=O)O)C(=O)O)C(=O)N[C@@H](CC(N)=O)C(=O)N[C@@H]([C@@H](C)O)C(=O)N[C@@H](C)C(=O)N[C@@H]([C@@H](C)O)C(=O)N1)[C@@H](C)O)C(=O)N[C@@H](C)C(=O)N[C@@H](CC(=O)O)C(=O)N[C@@H](Cc1ccccc1)C(=O)N[C@@H](CC(C)C)C(=O)N[C@@H](CCCNC(=N)N)C(=O)N[C@@H](Cc1c[nH]cn1)C(=O)N[C@@H](CO)C(=O)N[C@@H](CO)C(=O)N1CCC[C@H]1C(=O)N[C@@H](CC(N)=O)C(=O)N[C@@H](Cc1ccccc1)C(=O)NCC(=O)N[C@@H](C)C(=O)N1CCC[C@H]1C(=O)N[C@@H](CC(C)C)C(=O)N[C@@H](CO)C(=O)N[C@@H](CO)C(=O)N[C@H](C(=O)N[C@@H](CC(N)=O)C(=O)N[C@H](C(=O)NCC(=O)N[C@@H](CO)C(=O)N[C@@H](CC(=O)O)C(=O)N[C@H](C(=O)N[C@@H](Cc1ccc(O)cc1)C(N)=O)[C@@H](C)O)C(C)C)[C@@H](C)O
notes: Synthetic analogue; also called compound 1

target: T1, human calcitonin receptor; assay: SPA radioligand competition (125I-calcitonin), membranes of BHK cells with human calcitonin receptor
How it was run: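 BHK hCTR membranes 35 ng/μL + SPA beads 0.05 mg/well; buffer 50 mM Hepes pH 7.4, 1 mM CaCl2, 5 mM MgCl₂, 0.1% OA, 0.02% Tween20. 120 min, 25° C., shaking. Scintillation count; IC50 by one-site binding competition.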

Question: How did the IC50 turn out when B1 was run?
Answer: The IC50 was 25.3 nM.

Question: For B2, which IC50 is on record?
Answer: The IC50 was 12.9 nM.

Question: For B3, which IC50 is on record?
Answer: Its IC50 is 34.5 nM.

Question: With B4 as the binder, how does the IC50 read?
Answer: Its IC50 is 48.8 nM.

Question: How did the IC50 turn out when B5 was run?
Answer: The IC50 was 32.5 nM.

target: T1, human calcitonin receptor; assay: ratio IC50 hCTR / IC50 hAmylin-R of the two SPA competition assays; reference: human amylin receptor
Method: The resulting pellet was resuspended, homogenized and centrifuged (20.000 rpm, 15 min) in a buffer containing 20 mM Na-HEPES and 0.1 mM EDTA (pH 7.4, buffer 2). The resulting pellet was resuspended in buffer 2 and protein concentration was measured (BCA protein Assay, Pierce). The homogenate was kept cold during the whole procedure. The membranes were kept at −80° C. until use. The assay was performed in a 384 well Optiplate (PerkinElmer) in a total volume of 40 ul. Membranes were mixed with SPA beads. Final concentration of membranes 35 ng/μL final and SPA beads was 0.05 mg/well. Test-compounds were dissolved in DMSO and further diluted in assay buffer (50 mM Hepes, pH 7.4, 1 mM CaCl2, 5 mM MgCl₂, 0.1% OA and 0.02% Tween20). […] The final mixture was incubated with shaking at 400 rpm for 120 min at 25° C. prior to centrifugation (1500 rpm, 10 min). Samples were analyzed on TopCounter™ (Packard). The IC₅₀ was calculated using (one site binding competition analysis) GraphPad Prism5 as a measure of receptor affinity.
Membranes were prepared in the following way; the cells were rinsed with PBS and incubated with Versene for approximately 5 min before harvesting. The cells were flushed with PBS and the cell-suspension was centrifuged for 5 min at 1000 rpm. Cells were homogenized (Ultrathurrax) in a buffer containing 20 mM Na-HEPES and 10 mM EDTA (pH 7.4) and centrifuged at 20.000 rpm for 15 min. The resulting pellet was resuspended, homogenized and centrifuged (20.000 rpm, 15 min) in a buffer containing 20 mM Na-HEPES and 0.1 mM EDTA (pH 7.4, buffer 2). The resulting pellet was resuspended in buffer 2 and protein concentration was measured (BCA protein Assay, Pierce). The homogenate was kept cold during the whole procedure. The membranes were kept at −80° C. until use. Assay was performed in a 384 well Optiplate (PerkinElmer) in a total volume of 40 ul. Membranes were mixed with SPA beads.

Question: For B1, which “Ratio hCT/hAmylin binding” value is on record?
Answer: Its value is 47.5.

Question: Which “Ratio hCT/hAmylin binding” value does the source give for B2 here?
Answer: The value was 10.8.

Question: For B3, which “Ratio hCT/hAmylin binding” value is on record?
Answer: Its value is 41.3.

Question: How did the “Ratio hCT/hAmylin binding” value turn out when B4 was run?
Answer: The value was 50.3.

Question: How did the “Ratio hCT/hAmylin binding” value turn out when B5 was run?
Answer: The value was 27.6.
